# Laboratory results published in article PMC4973743, “Functional analysis of structurally related soybean GmWRKY58 and GmWRKY76 in plant growth and development”.
# T1: GmWRKY76 (Glycine max (soybean), UniProt I1KB70 1-319)
# T1 sequence: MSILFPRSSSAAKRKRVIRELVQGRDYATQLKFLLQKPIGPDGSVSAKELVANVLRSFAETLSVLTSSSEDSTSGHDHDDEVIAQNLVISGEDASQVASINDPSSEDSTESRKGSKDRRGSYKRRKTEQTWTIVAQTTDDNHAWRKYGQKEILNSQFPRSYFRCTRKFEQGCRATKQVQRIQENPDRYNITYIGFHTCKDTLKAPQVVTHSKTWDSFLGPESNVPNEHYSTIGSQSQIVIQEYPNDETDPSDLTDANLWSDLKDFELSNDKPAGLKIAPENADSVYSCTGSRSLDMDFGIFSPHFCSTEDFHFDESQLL
# T2: GmWRKY58 (Glycine max (soybean), UniProt B0LUS3 1-317)
# T2 sequence: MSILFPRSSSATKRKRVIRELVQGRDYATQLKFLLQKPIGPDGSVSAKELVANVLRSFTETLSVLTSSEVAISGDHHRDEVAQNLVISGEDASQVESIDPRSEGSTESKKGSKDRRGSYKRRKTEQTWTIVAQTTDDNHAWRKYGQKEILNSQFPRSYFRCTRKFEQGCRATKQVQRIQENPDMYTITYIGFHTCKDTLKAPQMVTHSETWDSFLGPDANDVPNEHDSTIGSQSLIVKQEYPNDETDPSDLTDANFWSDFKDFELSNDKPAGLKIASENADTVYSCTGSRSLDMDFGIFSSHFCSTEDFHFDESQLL
# Tests used:
# GmWRKY76 = biological target: T1, GmWRKY76; assay: EMSA; 5 ug poly(dI-dC), 1 ug protein; LightShift Chemiluminescent EMSA kit; 20 ul reactions, 2 ng labeled oligo, 5 ug poly(dI-dC), 1 ug recombinant protein; buffer, salt, pH and temperature not stated; conditions: tags: His (pET32a fusion), label: biotin 3' end
# GmWRKY58 = biological target: T2, GmWRKY58; assay: as above; conditions: tags: His (pET32a fusion), label: biotin 3' end
binder,measurement,setting,value
Pchn5 (dsDNA) DNA 1: GGAACTTGACCATCCGTTGACCGGGCTGCAGGAATTCG DNA 2: CGAATTCCTGCAGCCCGGTCAACGGATGGTCAAGTTCC,binding result,GmWRKY76,binds
same,binding result,GmWRKY58,binds
mPchn5 (dsDNA) DNA 1: GGAACTTGAACATCCGTTGAACGGGCTGCAGGAATTCG DNA 2: CGAATTCCTGCAGCCCGTTCAACGGATGTTCAAGTTCC,binding result,GmWRKY76,no binding
same,binding result,GmWRKY58,no binding
